Experimental data from publication PMC3858555.

Target: CIN85 of MDCK cells (dog (endogenous in MDCK))
Experiment: co-IP; whole cell lysates (RIPA), 500 μg; precipitated with anti-CIN85 antibody, blotted with anti-MUC1 (3C6, Ab5) or anti-Tac; washed with RIPA containing 0.5 M NaCl, 2% SDS; control unrelated IgG; intensity by Image J

fold co-precipitation against the construct lacking the cytoplasmic tail (22TR-Tac): 1.9 fold
fold co-precipitation against the construct lacking the extracellular domain (Tac-CT): 2.4 fold
Substance: full-length MUC1 containing 22 tandem repeats in the VNTR domain (natural protein)
